What was measured:
SARS-CoV-2 S protein = SARS-CoV-2 S protein (SARS-CoV-2, Wuhan-Hu-1 reference, UniProt P0DTC2); assay: SPR; details: both partners purified
SARS-CoV-1 S protein = SARS-CoV-1 S protein (SARS-CoV-1, strain not named (P59594 …, UniProt P59594)); assay: SPR; details: both partners purified

B1: P14-44 (antibody, V domains shown)
VH: QVQLVQSGAEVKKPGASVKVSCKASGYIFTSYSMHWVRQAPGQGLEWMGTIKPSDDSTNYAQKFQGRVSMTRDTSTSTVYMELSSLRYEDTAVYYCAREARGYYDRSGYYHPGYFDYWGQGTLVTVSS
VL: QSVLTQPASVSGSPGQSITISCTGTSSDVGGYNFVSWYQQHPGKAPKLMIYEVSDRPSGVSSRFSGSKSGNTASLTISGLQAEDEADYYCFSYTTSTTWVFGGGTKLTVL
notes: also called P14-44 IgG; source: HEK293F, transfected, purified (Protein A)
Question: For B1, which Kd (SARS-CoV-2 S protein) is on record?
Answer: 0.55 nM

Question: What about the Kd (SARS-CoV-1 S protein) of the same binder?
Answer: 4.3 nM
